In the DeepSol protein solubility set:

assay: soluble on expression in E. coli; label from the status in PepcDB or PDB records

Sequence | soluble on expression in E. coli
MRLLVSCVDSGSIKEVLCNIGTDTSVQSALQPFHVAPHLAEGLKAYVDRMWVISEDEAILARNSGVVELVKISKHLKENEALQVDPKGESKNEKSLSDDLPKFDISEFEITSSVSDLFDDAKLESLSSKSVKRTKLVDGFVTLCPIKKDSSNNTFVAATKSGLLHIIKKGEDKKLIKLASLGLKAPVEFLQLYDLEDTDTDKYIFAYGGEENLIKLVEIDSSFQSLKQIWEAKNVKNDRLDMRVPVWPMALRFLEPSPGKTEKGKLNYQFAAITRWSHLTKYSTQHGRKPFAQIDLLPNREPLSQMEVFDAKGENVVSSLGNFQSETFNELNVITTDYKKNVFKFDGNGRMLGKVGRDDITGSSTYIHVHDGKYLLQGGLDRYVRIFDIKTNKMLVKVYVGSRINFIVMLDDVEIEMPLSPSAKAAKGKQKRKVTELEEDADELWNKLEGKVAASKASKKSKI | soluble
MRLPPMLDNLTRMARMNDNQHRFALSDLYRFVNGPWLDSHVIPEDRGVDGIFHGLRDRAEEDVHTIVMDSADSLAGKLYASFMDTEGIESAGVAALDKDLTLIDVATVPEFVQALGALDRVGVGGPVGFWVAKDSAGDKSVAYIMQSGITLPDEAYYREESHAQTREAYQKHVEKMLGFLAPEQLGTTPIDAATRILALETDIAAAHWDVVQRRDAVKTFNPTEMAELPPQVAALLRAAGLPEHRVISMMPSYFEALESLLTPQRLDDWKLLTTWRILHSRAGVLTPEISRADFEFFGTTLSGATQQRDRWKRALGLAESFVGEEIGALYVERHFPESSKKDMLSLVSYLIEAYRERISGLSWMTPETRERALDKLDKFNAKIGYPDSWRSYAGLEFSAKGTDLL | not soluble
MRLSFLTLQRRHALRDALRHKPAPRCRTQERTQSVQNGMPTRSVARLEHHHHHH | not soluble
MRMNIRVALPQAQVHWCRGWLQAAHADALMQALLDQVQWEVHRIRMFGRVVDSPRLSSWIGDADASYRYSGTQFAPQPWLEALQPVRTRLQDETGSPFNSVLVNRYRSGADAMGWHSDDEPELGAQPVIASLSLGAARRFAFKHRHDAALKQTLELGHGDLLLMGGDTQRHYKHALPRTVKPVGERINLTFRQIAVRVSQRLEHHHHHH | not soluble
MRMSSNFRNPCMIRSDVPLSNDQIAHYVPSIFAEEAHDSRSARYLYIPTVQVLDALRAEGFEPFMACQTRVRDQGKREHTKHMLRLRHASQILDQEANEVILLNSHDGSSSYQMIGGKFRFVCANGLVLGDVAADQKVRHSGRGDVVHDVIEGAFEVLKHFEQIDHITADMKHQQLDQDEQEAFALAALAYRYDPAEGPAPVTPSQLLMPRRREDRSSDLWTTFNRVQENTIKGGLTGRNKQGRRTTTRAVNGIDQDVKLNRALWVLAQAMGEHRKAA | not soluble
MRNFKKPDVLVSKCLEHGRCRYDGQMISSDFVKSTKKYFNYVPVCPEVEIGLSIPRNSLKIVFENEKFEFVQNITNNNYTSKITQFSSDFLDSIENIDGAVLKHKSPSCGIKNVKVYTAKGNPTNQKTEGFFAKEVLYRYSNIAIEEESRLRNKRIKDHFLTKLYTIKDFKEVKESESIKNLIEFHTNNKFLFMAYNQKQKDILGNIVGNHNKNFDKIIKLYEKHLQLLLKRPSAIGSNINVLMHIFGYMSNKISKDEKLLFIDSLQRYHDELDCLCVPIILLKSWVIRFNVDYLKKQTYFEPFPQELADNSEMFKRDYWND | not soluble
MRNHYMSMYDMRQFFKTYFSSASEKSILVKLLDKRFHPPSHTANILDLGCHDGALMKNIVNAYAKRLPEKLVITGVDPSLQAIKEYAKADFPIPVQTNTFAGTAEDYFDVCTDHFDWIFASQCLYWSPDLPKIIKQIHETGDSALIVIRGCHGIYEIQSQFRHYIGNHLEKFYTDKEVEMALRTQKILFQKESLSTSIRLPDKDSIELKWLILFFLQMEEESLGDKIFCEVRDWITSRTSGSIHHEVHFFWLGNAILQGITI | not soluble
MRNLIISAALVAASLFGMSAQAAEPIESGKQYVELTSAVPVAVPGKIEVIELFWYGCPHCYAFEPTINPWVEKLPSDVNFVRIPAMFGGPWDAHGQLFITLDTMGVEHKVHAAVFEAIQKGGKRLTDKNDMADFVATQGVNKDDFLKTFDSFAVKGKIAQYKELAKKYEVTGVPTMIVNGKYRFDLGSAGGPEKTLQVADQLIDKERAAAKAAK | not soluble
MRNVLKAETLERKFPLLSVENGCIVSKDADLTVAFEVELPELYTVTAEEYEAMHSTWIKAARVLPEHSIVCKQDWFTKESYRPQNGGEEQSFLSRSYERHFNERPYLNHRCFLYLTKTTRERNRRQSDFSTLCRGFLLPREITDKDMAARFLEAVEQFEHIVNDSGHIRLRRLETEEITGTRERPGLVEKYLSLSMEDETAVLQDICLKPGRMRIGDKRLCLHTLSDTEDLPGKLSTDMRYERMSTDRSDCRLSFAAPVGLLLSCNHIYSQYVFIDNAQKILQMMEKNSRNMLSLSQYSRSNAVNQEWTEMYLDEAHTKGVLPVRCHCNVIAWAEDAEEFRRIRNDTGSQLAMMECTPRYNTVDTPVLYWAGIPGNAGDFPAEESFYTFLEQAVCLFAGETNYRSSPSPFGIRMADRQNGIPVHVDISDLPMKRGIITNRNKFILGPSGSGKSFFTNHLVRNYYEQGAHILLVDTGNSYQGLCRMIHERTRGGDGIYITYEEDNPISFNPFYTDSGQFDVEKRESIKTLILTLWKREDEAPKRSEEVALSGAVNAYIRKITENREARPDFNGFYEFVDGDYRRMIAEKKVREKDFDIDGFLNVLEPFYKGGDYDFLLNSDRELDLTNRRFIVFELDNISGNKVLLPVVTLIIMETFIAKMRRLKGIRKVILIEECWKALMSANMSGYIQYLFKTVRKYFGEAVVVTQEVDDIISSPIVKEAIINNSDCKILLDQRKYMNKFEHIQRLLGLTEKEKSQILSINQANHPGRFYREVWIGLGGTRSAVYATEVSAEEYFTFTTEESEKLEVQRLAEELDGNLELAIRRMAERKREEQRQVSIPKREQ | not soluble
MRPDDAIELFNSCRGHCIERQNYIENLQKRHVRKNRNVSAPRTDGLEDSADPTEQVYTNNKPVKKKPRKNRRGGHLAPSQHFQHQTQSSPYSLRKWSQNQSVYQRGLVPPPGPAGEDYSQRRFFWSARPNKWTAESYQRPFYPYYWEWNL | not soluble
MRPGLSAKRLVVKVGSAVLTGERGLDLEAMAEIARQVAALREEGREVVLVSSGAVAAGMRRLGLKERPKDMPKKQALAALGQPLLMAFWQEAFAPFGLPVAQVLLTAEDLSSRSRYLNAKATLRALLDLGAIPVINENDTVAFEEIRFGDNDQLSARVAALVEAGLLALLSDVDALYEEDPKKNPQARPIPEVESVEAVLAHAGEENPLGSGGMKSKLLAARIAGRVGIPTLLLPGKRPGVLLQALSGAPLGTYFHARRRYRGEKAWLFGLLRPKGELVLDRGAVRALKERGASLLPAGVKEVRGRFSRGEAVRLLSEEGEEVGVGLANYASEEIARIKGRRSAEIEAVLGYRYTEEVVHRDHLALKEEA | soluble
MRPKVGVLLKMKREALEELKKYADVEIILYPSGEELKGVIGRFDGIIVSPTTKITREVLENAERLKVISCHSAGYDNIDLEEATKRGIYVTKVSGLLSEAVAEFTVGLIINLMRKIHYADKFIRRGEWESHAKIWTGFKRIESLYGKKVGILGMGAIGKAIARRLIPFGVKLYYWSRHRKVNVEKELKARYMDIDELLEKSDIVILALPLTRDTYHIINEERVKKLEGKYLVNIGRGALVDEKAVTEAIKQGKLKGYATDVFEKEPVREHELFKYEWETVLTPHYAGLALEAQEDVGFRAVENLLKVLRGEVPEDLVNKEVLEVRPIENVKML | soluble
MRQAASIACIGGANVDRKARLLTPFRLGTSHPVTTTQTAGGVARNIAENLGRLAQPVSLVSTVGDDRDGQWLVDVTSRYVNTSFIVRTPKANTGTYTAVLDERGEMVLALADMAIYHPEPRRPPLPRVSVSGG | not soluble
MRQLLLISDLDNTWVGDQQALEHLQEYLGDRRGNFYLAYATGRSYHSARELQKQVGLMEPDYWLTAVGSEIYHPEGLDQHWADYLSEHWQRDILQAIADGFEALKPQSPLEQNPWKISYHLDPQACPTVIDQLTEMLKETGIPVQVIFSSGKDVDLLPQRSNKGNATQYLQQHLAMEPSQTLVCGDSGNDIGLFETSARGVIVRNAQPELLHWYDQWGDSRHYRAQSSHAGAILEAIAHFDFLS | soluble
MRRAFLVNSDKCIGCRGCAMACKSFNQLEPDRFWRYVYPLDKDIYPHEERAFYSLACNHCEHPACVAACPVEAYTKREDGVVVHNPERCIGCKNCIRNCPYGAPRFNEETRKAEKCSMCYERLDIGMNPACVNACPVGALSIIDLDADPVPDNAVQYPPGFPHMPQLNPGTRFILARQPKQPEDK | not soluble
MRREKTMDTLIRSIMIKSKRKMDAKVAQFGLTTQQARVLGFLNDNAANEIIQKDLQRIFQTRGASITSLIQGLEKKQLISRKPSLRDGREKVVTLTKEGKDIVDEFNASFPREDDKAKKILSADEYKTFIELLSKIDDQTDLEHHHHHH | soluble
MRRLLLASSLLTLLAGCANHVIDPHGYDETGTAAYYGTRHHGNRTASGEPFNQNALTAAHRQLPFGTRVKVTNLNNDKSVIVRVNDRGPHTRGRLIDVSREAAEQLGMLRSGTAPVRVQALD | not soluble
MRRNGSVPDLNKNDAFRRPPAPKGGVEKRKKGRASGLDGRQKRYVRGAESLGSVLNKEIQRRGWGKDIAGGWVTSNWEELVGAKIAQHTRVEMIKDKKLFITCDSTAWATNLRMMQRQILQVIAEKVGPNIITELRIFGPQAPSWRKGPLHVKGRGPRDTYG | not soluble
MRRTLHNELQELRGNIRVYCRIRPALKNLENSDTSLINVNEFDDNSGVQSMEVTKIQNTAQVHEFKFDKIFDQQDTNVDVFKEVGQLVQSSLDGYNVCIFAYGQTGSGKTFTMLNPGDGIIPSTISHIFNWINKLKTKGWDYKVNCEFIEIYNENIVDLLRSDNNNKEDTSIGLKHEIRHDQETKTTTITNVTSCKLESEEMVEIILKKANKLRSTASTASNEHSSRSHSIFIIHLSGSNAKTGAHSYGTLNLVDLAGSERINVSQVVGDRLRETQNINKSLSCLGDVIHALGQPDSTKRHIPFRNSKLTYLLQYSLTGDSKTLMFVNISPSSSHINETLNSLRFASKVNSTRLVSRK | soluble
MRRVLFSCFCGLLWSSSGWAVDPLGTININLHGNVVDFSCTVNTADIDKTVDLGRWPTTQLLNAGDTTALVPFSLRLEGCPPGSVAILFTGTPASDTNLLALDDPAMAQTVAIELRNSDRSRLALGEASPTEEVDANGNVTLNFFANYRALASGVRPGVAKADAIFMINYN | not soluble
MRSKRFEALAKRPVNQDGFVKEWIEEGFIAMESPNDPKPSIKIVNGAVTELDGKPVSDFDLIDHFIARYGINLNRAEEVMAMDSVKLANMLCDPNVKRSEIVPLTTAMTPAKIVEVVSHMNVVEMMMAMQKMRARRTPSQQAHVTNVKDNPVQIAADAAEGAWRGFDEQETTVAVARYAPFNAIALLVGSQVGRPGVLTQCSLEEATELKLGMLGHTCYAETISVYGTEPVFTDGDDTPWSKGFLASSYASRGLKMRFTSGSGSEVQMGYAEGKSMLYLEARCIYITKAAGVQGLQNGSVSCIGVPSAVPSGIRAVLAENLICSSLDLECASSNDQTFTHSDMRRTARLLMQFLPGTDFISSGYSAVPNYDNMFAGSNEDAEDFDDYNVIQRDLKVDGGLRPVREEDVIAIRNKAARALQAVFAGMGLPPITDEEVEAATYAHGSKDMPERNIVEDIKFAQEIINKNRNGLEVVKALAQGGFTDVAQDMLNIQKAKLTGDYLHTSAIIVGDGQVLSAVNDVNDYAGPATGYRLQGERWEEIKNIPGALDPNEID | soluble
